Patent publication US20240409634A1 (Janssen / Centocor, published 2024)

Target: human CD33 on CD33-expressing THP-1 cells (human, UniProt P20138 18-364)
Assay: cell-based or functional assay

Sequence of human CD33 on CD33-expressing THP-1 cells (P20138 18-364): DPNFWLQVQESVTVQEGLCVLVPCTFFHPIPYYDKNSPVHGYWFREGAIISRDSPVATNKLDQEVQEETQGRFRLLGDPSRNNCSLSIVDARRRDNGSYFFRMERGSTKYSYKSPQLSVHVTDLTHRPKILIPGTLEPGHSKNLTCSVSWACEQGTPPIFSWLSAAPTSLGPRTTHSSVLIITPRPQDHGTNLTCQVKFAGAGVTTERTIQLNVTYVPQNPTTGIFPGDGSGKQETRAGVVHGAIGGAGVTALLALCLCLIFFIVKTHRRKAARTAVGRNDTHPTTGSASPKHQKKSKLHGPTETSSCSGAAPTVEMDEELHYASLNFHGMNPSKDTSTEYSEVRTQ

B1: CD33 antibody JL5 combined with Vdelta2 antibody 6H4 (JL5x6H4), Fab (CD33) x VHH (Vδ2) Fc construct (bispecific antibody, human IgG1, lambda, L234A L235A)
heavy: QVQLQESGPGLVKPSETLSLTCSVSGASIRNYYWSWIRQTAGKGLEWLGHIYSTGNIHYNPSLKSRVTMSVDTSNNQFSLKLRSVTAADTAVYYCARDNGAALFDYWGQGTLVTVSSASTKGPSVFPLAPSSKSTSGGTAALGCLVKDYFPEPVTVSWNSGALTSGVHTFPAVLQSSGLYSLSSVVTVPSSSLGTQTYICNVNHKPSNTKVDKKVEPKSCDKTHTCPPCPAPEAAGGPSVFLFPPKPKDTLYITREPEVTCVVVSVSHEDPEVKFNWYVDGVEVHNAKTKPREEQYNSTYRVVSVLTVLHQDWLNGKEYKCKVSNKALPAPIEKTISKAKGQPREPQVYTLPPSREEMTKNQVSLSCAVKGFYPSDIAVEWESNGQPENNYKTTPPVLDSDGSFFLVSKLTVDKSRWQQGNVFSCSVMHEALHNRFTQKSLSLSPGK
light: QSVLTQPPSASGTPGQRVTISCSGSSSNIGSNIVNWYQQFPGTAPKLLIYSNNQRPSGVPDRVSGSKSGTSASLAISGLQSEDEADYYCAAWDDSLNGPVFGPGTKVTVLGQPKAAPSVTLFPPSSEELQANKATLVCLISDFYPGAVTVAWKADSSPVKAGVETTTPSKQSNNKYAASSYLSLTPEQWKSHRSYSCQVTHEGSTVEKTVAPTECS
chain: EVQLVESGGGLVQAGGSLRLSCAASGRPFSNYGMGWFRQAPGKKREFVAGISWSGGSTDYADSVKGRFTISRDNAKNTVYLQMNSLKPEDTAVYYCAAVFSGAETAYYPSDDYDYWGQGTQVTVSSEPKSSDKTHTCPPCPAPEAAGGPSVFLFPPKPKDTLYITREPEVTCVVVSVSHEDPEVKFNWYVDGVEVHNAKTKPREEQYNSTYRVVSVLTVLHQDWLNGKEYKCKVSNKALPAPIEKTISKAKGQPREPQVYTLPPSREEMTKNQVSLWCLVKGFYPSDIAVEWESNGQPENNYKTTPPVLDSDGSFFLYSKLTVDKSRWQQGNVFSCSVMHEALHNHYTQKSLSLSPGK
- Cytotox EC50 (pM) E:T 1:1 - 22 hrs: 5.4 pM
- Cytotox EC50 (pM) E:T 1:20 - 94 hrs: 15 pM

B2: CD33 antibody JL6 combined with Vdelta2 antibody 6H4 (JL6x6H4), Fab (CD33) x VHH (Vδ2) Fc construct (bispecific antibody, human IgG1, lambda, L234A L235A)
heavy: QVQLQESGPGLVKPSETLSLTCTVSGGSISSYYWGWIRQPPGKGLEWIGYIYYSGSTNYNPSLKSRVTISVDTSKNQFSLKLSSVTAADTAVYYCARMWEILGFDPWGQGTLVTVSSASTKGPSVFPLAPSSKSTSGGTAALGCLVKDYFPEPVTVSWNSGALTSGVHTFPAVLQSSGLYSLSSVVTVPSSSLGTQTYICNVNHKPSNTKVDKKVEPKSCDKTHTCPPCPAPEAAGGPSVFLFPPKPKDTLMISRTPEVTCVVVSVSHEDPEVKFNWYVDGVEVHNAKTKPREEQYNSTYRVVSVLTVLHQDWLNGKEYKCKVSNKALPAPIEKTISKAKGQPREPQVYTLPPSREEMTKNQVSLSCAVKGFYPSDIAVEWESNGQPENNYKTTPPVLDSDGSFFLVSKLTVDKSRWQQGNVFSCSVMHEALHNRFTQKSLSLSPGK
light: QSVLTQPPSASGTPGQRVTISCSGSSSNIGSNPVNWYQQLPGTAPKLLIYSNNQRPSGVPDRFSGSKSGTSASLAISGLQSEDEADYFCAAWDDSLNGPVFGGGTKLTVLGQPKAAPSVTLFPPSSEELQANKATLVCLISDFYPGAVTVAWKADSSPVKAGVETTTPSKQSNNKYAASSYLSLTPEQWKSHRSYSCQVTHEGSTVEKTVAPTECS
chain: EVQLVESGGGLVQAGGSLRLSCAASGRPFSNYGMGWFRQAPGKKREFVAGISWSGGSTDYADSVKGRFTISRDNAKNTVYLQMNSLKPEDTAVYYCAAVFSGAETAYYPSDDYDYWGQGTQVTVSSEPKSSDKTHTCPPCPAPEAAGGPSVFLFPPKPKDTLMISRTPEVTCVVVSVSHEDPEVKFNWYVDGVEVHNAKTKPREEQYNSTYRVVSVLTVLHQDWLNGKEYKCKVSNKALPAPIEKTISKAKGQPREPQVYTLPPSREEMTKNQVSLWCLVKGFYPSDIAVEWESNGQPENNYKTTPPVLDSDGSFFLYSKLTVDKSRWQQGNVFSCSVMHEALHNHYTQKSLSLSPGK
- Cytotox EC50 (pM) E:T 1:1 - 22 hrs: 6.2 pM
- Cytotox EC50 (pM) E:T 1:20 - 94 hrs: 30 pM
